The values that follow come from the nanobody polyreactivity screen of Harvey et al. (2022).

The nature of this data set: yeast display, Sf9 membrane polyspecificity reagent, FACS + sequencing; frameworks hold sequencing errors. The gist of the method: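 Sorting gates, low and high (top ~1%), were placed on anti-HA fluorescence to track expression and on streptavidin fluorescence to track reagent binding. A clone's polyreactivity label is taken from the gate it came out of. The reagent was 10% biotinylated, detergent-solubilized Sf9 membrane, applied for 1 hour at 4 °C to galactose-induced yeast display cells.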
“QVQLVESGGGLVQAGGSLRLSCAATGRIFLKYTMGWYRQAPGKERELVAAISRGRSTYYADSVKGRFTISRDNAMNTVYLQMNSLKPEDTAVYYFAATSYRRTGYYYWGQGTQVTVSS”: the “polyreactivity (PSR sort gate)” value was “high polyreactivity”. As for “QVQLVESGGGLVQAGGSLRLSCAATGRIFYGYTMGWYRQPPGKERELVAAINFNAGRTYYADSVKGRFTISRDNAKNTVYLQMNSLKPEDTAVYYCAAEGRFGRKYGYWGQGTQVTVSS”, the “polyreactivity (PSR sort gate)” value was “low polyreactivity”. The same measure for “QVQLVESGGGLVQAGGSLRLSCAATGRTFLYNAMGWYRQAPGKERELVAAISFDDGSTYYADSVKGRFTISRDNAKNTVYLQMNSLKPEDPAVYYCAAEYLYVGDSQAYNQYEYWGQGTQVTVSS”: “low polyreactivity”. With “QVQLVESGGGLVQAGGSLRLSCAATGRTFVSNAMGWYRQAPGKERELVAAISSSTGSTYYADSVKGRFTISRDNAKNTVYLQMNSLKPEDTAVYYCAAYLLGRSPYDYWGQGTQVTVSS” the entry was “low polyreactivity”. As to “QVQLVESGGGLVQAGGSLRLSCAATGSIFNYYAMGWYRQAPGKERELVATISRGGRTNYADSVKGRFTISRDNAKNTVYLQMNRLKAEETAVYYCAADRYYTYNVYYFSSFVYWGHGTQVTVSS”, the “polyreactivity (PSR sort gate)” value is given as “high polyreactivity”. The same measure for “QVQLVESGGGLVQAGGSLRLSCAATGSIFRYYAMGWYRQAPGKERELVAAISWSGGSTYYSDSVKGRFTISRDNAKNTVYLQMNSLKPEDTAVYYCNVKRYGGRSDYWGQGSQVTVSS”: “high polyreactivity”; for “QVQLVESGGGLVQAGGSLRLSCAATGSIFYGNAMGWYRQAPGKERELVAAISWGAGSTYYADSVKGRFTISRDNAKNTVYLQMNSLKPEDTAVYYCNTLQITGWYDYWGQGTQVTVSS”: “high polyreactivity”. For the sequence “QVQLVESGGGLVQAGGSLRLSCAATGSIFYVNAMGWYRQAPGKERELVAVNADSVKGRFTISRDNAKNTVYLQMNSLKPEDTAVYYCAAGVNSTTRIYDYWGQGTQVTVSS”, the “polyreactivity (PSR sort gate)” value is “low polyreactivity”.

“QVQLVESGGGLVQAGGSLRLSCAATGSNFINYAMGWYRQAPGKERELVAAYADSVKGRFTISRDNAKNTVYLQMNSLKPEDTAVYYCNAVTGEWGQGTQVTVSS”: the “polyreactivity (PSR sort gate)” value is listed as “low polyreactivity”. With “QVQLVESGGGLVQAGGSLRLSCAATGSTFAHNSMGWYRQAPGKESQFVAAISARGGMTYYADSVKGRFTISRDYAKNTVYLQMNSLKPEDTAVYYCAAVFGDYWSSQWSYAYGYWGQGTQVTVSS”, the “polyreactivity (PSR sort gate)” value was “high polyreactivity”. The same measure for “QVQLVESGGGLVQAGGSLRLSCAATGSTFAVYSMGWYRQAPGKELELVATIRRNGGSTYYADSVKGRFTISRDNAKNTVYLQMNSLQPEDTAVYYCAARSRKRWGYNYWGQGTQVTVSA”: “high polyreactivity”.

In the case of “QVQLVESGGGLVQAGGSLRLSCAATGSTFDDNVMGWYRQAHGKVRELVAAITTSGGSTFYADSVKWRFTISRDNAKNTVYLQMNSLKPEDTAVYYCNAVYFGLWGYYARRSYNYWGQGTQVTVSS”, the “polyreactivity (PSR sort gate)” value was “low polyreactivity”. The same measure for “QVQLVESGGGLVQAGGSLRLSCAATGSTFLRNAIGWYRQAPGTERELVATITNGGSTYYADSVKGRFTISRDNAKNTVYLQMNSLKPEDTAVYYCATLSSYWSWLRYGYGYWGQGTQVTVSS”: “low polyreactivity”; for “QVQLVESGGGLVQAGGSLRLSCAATGTTFHYYAMGWYRQAPGKERELVASITRSGGRTYYADSVKGRFTISRDNAKNTVYLQMNSLKPEDTAVYYCAARSYRRTSYDYPSNPNYEYYYWGQGTQVTVSS”: “high polyreactivity”.

“QVQLVESGGGLVQAGGSLRLSCAATVSIFDRNAMGWYRQAPGKERELVAAISSVGSTNYADSVKGRFTISRDNAKNTVYLQMNSLKPEDTADYYCAAENEFIPSLFDYWGQGTQVTVSS”: the “polyreactivity (PSR sort gate)” value was “low polyreactivity”. With “QVQLVESGGGLVQAGGSLRLSCAATVSTIKTYATMGLYRQAPWTERELVAAITSGSSTNYADSVKGRFTISRDNAKNTVYLQMNSMKPEDTAVYYCAADDYYNWYLGEPGDYWGQGTQVTVSS” the entry was “low polyreactivity”. For the sequence “QVQLVESGGGLVQAGGSLRLSCAAWSIFYLNAMGWNRQAPGKERELDAAISSAGSTYYADSVKGRFTISRDNAKNTFYLQMNSLKPEDTAVYYCAAYWYDSPGVTEIWYDYWGQGTQVTVSS”, the “polyreactivity (PSR sort gate)” value is reported as “low polyreactivity”.

As for “QVQLVESGGGLVQAGGSLRLSCAAYGFIFTRYAMGWSRQAPGKERELVAAISSSGGSTSYADSVKGRFTISRDNAKNTVYFQMNSLKPEDTAVYYCAARGYRLARYRSYDYWGQGTQVTVSS”, the “polyreactivity (PSR sort gate)” value is “high polyreactivity”. The same measure for “QVQLVESGGGLVQAGGSLRLSCAAYGFTFKYYVMGWYRQAPGKERELVASISKRGGSTRYADSVKGRFTISRDNAKNTVYLQMNSLKPEDTAVYYCAAAFVRPPPYVGYSRFYYWGQGTQVTVSS”: “high polyreactivity”; for “QVQLVESGGGLVQAGGSLRLSCAAYGFTFVDFVMGWSIQAPGKERELVAAITTSGTRTSYADSVKGRFTISRDNAKNTVYLQLNSLKPEDTAVYYCNADHKSIYPKYRGRFYYWGQGTQVTVSS”: “high polyreactivity”; for “QVQLVESGGGLVQAGGSLRLSCAAYGIIFRRNAMGWYRQAPGKERELVAAISWSGGTTYYADSVKGRFTISRDNAKYTVYLQIISLKPEDTAVYYCAAGLISRPYGYDYWGQCTQVTVSS”: “high polyreactivity”. The same measure for “QVQLVESGGGLVQAGGSLRLSCAAYGIIFWINSMGRYRPAPGKEREVVAAITSGGTTYYADSVKGRFTISRDNGKNTVYLQMNILKPEDTAVYYCAARVRGARDYYWGQGTQVTVSS”: “high polyreactivity”.

“QVQLVESGGGLVQAGGSLRLSCAAYGIIFYLYVMGWYRQAPGKERELVAVISYSGDDTYYADSVKGRFTISRDNAKNTVYLQMNSLKPEDTAVYYCAADYYYVYSSFGHYYWGQGTQVTVSS”: the “polyreactivity (PSR sort gate)” value was “low polyreactivity”. On to “QVQLVESGGGLVQAGGSLRLSCAAYGLIFPVYAMGWYRQAPGKEREFVASIWRGGTTYYADSVKGRFTISRDNAKNTVYLQMNRLKPEDTAVYYCAARYYPRGLVFPFTKYDYWGQGTQVTVSS”, for which the “polyreactivity (PSR sort gate)” value is reported as “high polyreactivity”.

Turning to “QVQLVESGGGLVQAGGSLRLSCAAYGLTFLSNAMGWYRPAPGKEREFVAAITKSGGRTYYADSVKGRFTISRDNAKNTVYFQMNSLKPEDTSVYYCAASGTSPRSTWYNSWGQGTQVTVSS”, the “polyreactivity (PSR sort gate)” value is on record as “high polyreactivity”. For the sequence “QVQLVESGGGLVQAGGSLRLSCAAYGNAMGWYRQAPGKERELVASINRSGGRTYYADSVKGRFTISRDNAKNTVYLQMNSLKPEDTAVYYCAARPHYDSDYWGQGTQVTVSS”, the “polyreactivity (PSR sort gate)” value is “low polyreactivity”.

As to “QVQLVESGGGLVQAGGSLRLSCAAYGNTFEHYAKGWYRQAPVKERELVAAISNSGGSTYYADSVKGRFTLSRDNAKNTVYLQMNSLKPEDTAVYYCNARGRASATVRLGRPDPFGDWGQGTQVTVSS”, the “polyreactivity (PSR sort gate)” value is recorded as “high polyreactivity”.

With “QVQLVESGGGLVQAGGSLRLSCAAYGRIFIGYTMGWYRQAPGNERELVAVISYRGGRTYYADSVKGRFTISRDNAKNTVYLQMNSLKPEDTAVYYCAAYRPGVISGFDYWGQGTQVTVSS”, the “polyreactivity (PSR sort gate)” value was “high polyreactivity”. The same measure for “QVQLVESGGGLVQAGGSLRLSCAAYGRIFNDYTMGWYRQAPGKERELVADITNRDTSTSYADSVKGRFIISRDNANNTVYLQMYILKPDDTAVYYCNAQQVIVVYRPGDYWGQGTQVTVSS”: “low polyreactivity”; for “QVQLVESGGGLVQAGGSLRLSCAAYGRIFSAYVMGWYRQAPGKERELVAAISSTGSTYYADSAKGRFTISRDNAKNTVYLQMNSLKPEDTAVYYCAKRFFQQGYYYWGQGTQVTVSS”: “low polyreactivity”.

For “QVQLVESGGGLVQAGGSLRLSCAAYGRIFTSYVMGWYRQAPGKERELVAGINSGRRTNYADSVKGRFTISRDNAKNTVYLQMNSLKPEDTAVYYCAKAGYWYKAHYYWGQGTQVTVSS”, the “polyreactivity (PSR sort gate)” value is “high polyreactivity”. With “QVQLVESGGGLVQAGGSLRLSCAAYGRIFYRNVMGWYRQAPGKERELVAAITYRTGSTYYADSVKGRFTISRDNAKNTVYLQMNSLKPEDTAVYYCNVVPRNGQTWGYEYDYWGQGTQVTVSS”, the “polyreactivity (PSR sort gate)” value was “high polyreactivity”. The same measure for “QVQLVESGGGLVQAGGSLRLSCAAYGSIIGVNAMGWYRPAPGKERELVAAISSTGGSTYYADSVKGRFTISRDNAKNTVYLQMNSLKPEDTAVYYCNTDYSKSIGDGYAGFDYWGQGTQVTVSS”: “low polyreactivity”.

With “QVQLVESGGGLVQAGGSLRLSCAAYGSIISYTMGWYRQAPGKERELVAAITSGRITYYADSVKGRFTISRDNAKNTVSLQMNRLKQEDTAVYYCNNDVGFTRPLYYWGQGTQVTVSS”, the “polyreactivity (PSR sort gate)” value is on record as “low polyreactivity”.

In the case of “QVQLVESGGGLVQAGGSLRLSCAAYGSILLRYAMGWYRQAPGKERELVAAIRTIGASTYYADSVKGRFTISRDNAKNTVYLQMNSLKPEDTAVYYCNGYLAEVLQLGKCRLYDYWGQSTQVTVSS”, the “polyreactivity (PSR sort gate)” value is recorded as “low polyreactivity”. “QVQLVESGGGLVQAGGSLRLSCAAYGSILRTYAMGWYRQAPGKERELVAAISSSGGSTYYADSVKGRFTISRDNAKNTVYLQMNSLKPEDTAVYYCAARYRYYYTRYDYWGQGTQVTVSS”: the “polyreactivity (PSR sort gate)” value is “high polyreactivity”.

Turning to “QVQLVESGGGLVQAGGSLRLSCAAYGSLFDSNAMGWYRQAPRKERELVAAITVSGTSTYYADSVNGRFTISRDNEKNTVYLQMNSLKPEYTEVYYCAAAQEYLTDHDYWGQGTQVTVSS”, the “polyreactivity (PSR sort gate)” value is “low polyreactivity”. The same measure for “QVQLVESGGGLVQAGGSLRLSCAAYGSNFVFNAMGWYRQAPGKERELVAAISNGDGTNYADSVKGRFTISRDNAKNTVYFQINSLKPEDTAVYYCAAVWTTQIVIEYDYWGQGSQVTVSS”: “low polyreactivity”; for “QVQLVESGGGLVQAGGSLRLSCAAYGSSFNHYSMGWYRQAPGKERELVAAISWNGGSTYYADSVKGRFTISRDNAKNTVYLQMNSLKPEDTAVYYCNALVTTTPRYDYWGQGTQVTVSS”: “high polyreactivity”.

For the sequence “QVQLVESGGGLVQAGGSLRLSCAAYGSTFASYSMGWYRQAPGKERELVADISKSGTRTYYADSVKGRFTISRDNAKNTVYLQMNSLKPEDTAVYYCATGQYLRTSRFYYWGHGTQVTVSS”, the “polyreactivity (PSR sort gate)” value is recorded as “high polyreactivity”. The same measure for “QVQLVESGGGLVQAGGSLRLSCAAYGSTFEYYVMGWYRQAPGKERELVAAISGSGGGTYYADSVKGRFTISRDNAKNTVSLQMNSLKPEDTAVYYCAAVATLEKYDYWGQGNQVTVSS”: “low polyreactivity”.
